# Patent US5574136, “DNA encoding granulocyte colony-stimulating factor receptor and protein thereof” (Osaka Bioscience Institute, dated 1996)
# T1: human recombinant M-CSF (human, UniProt P09603)
# T1 sequence: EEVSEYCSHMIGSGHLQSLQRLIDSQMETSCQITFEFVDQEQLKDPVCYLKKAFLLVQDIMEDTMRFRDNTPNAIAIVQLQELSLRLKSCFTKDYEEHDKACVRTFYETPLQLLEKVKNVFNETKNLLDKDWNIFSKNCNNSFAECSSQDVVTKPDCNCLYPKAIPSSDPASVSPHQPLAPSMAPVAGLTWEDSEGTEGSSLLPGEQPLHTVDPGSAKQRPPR
# T2: rat prolactin (rat, UniProt P01237)
# T2 sequence: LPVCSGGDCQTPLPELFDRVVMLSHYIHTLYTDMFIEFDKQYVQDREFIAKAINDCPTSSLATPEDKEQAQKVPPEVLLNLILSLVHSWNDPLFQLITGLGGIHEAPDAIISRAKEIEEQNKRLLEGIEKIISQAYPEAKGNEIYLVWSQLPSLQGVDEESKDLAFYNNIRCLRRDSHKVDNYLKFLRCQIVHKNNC
# T3: mouse recombinant IL-6 (mouse, UniProt P08505)
# T3 sequence: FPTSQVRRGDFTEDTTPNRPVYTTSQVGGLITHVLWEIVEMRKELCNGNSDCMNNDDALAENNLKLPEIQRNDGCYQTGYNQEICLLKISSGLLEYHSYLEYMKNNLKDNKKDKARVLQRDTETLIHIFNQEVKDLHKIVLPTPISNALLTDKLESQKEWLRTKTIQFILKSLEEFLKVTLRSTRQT
# B1: recombinant murine G-CSF receptor expressed on COS cells (plasmids pI62, pJ17) (receptor)
# chain: CGHIEISPPVVRLGDPVLASCTISPNCSKLDQQAKILWRLQDEPIQPGDRQHHLPDGTQESLITLPHLNYTQAFLFCLVPWEDSVQLLDQAELHAGYPPASPSNLSCLMHLTTNSLVCQWEPGPETHLPTSFILKSFRSRADCQYQGDTIPDCVAKKRQNNCSIPRKNLLLYQYMAIWVQAENMLGSSESPKLCLDPMDVVKLEPPMLQALDIGPDVVSHQPGCLWLSWKPWKPSEYMEQECELRYQPQLKGANWTLVFHLPSSKDQFELCGLHQAPVYTLQMRCIRSSLPGFWSPWSPGLQLRPTMKAPTIRLDTWCQKKQLDPGTVSVQLFWKPTPLQEDSGQIQGYLLSWNSPDHQGQDIHLCNTTQLSCIFLLPSEAQNVTLVAYNKAGTSSPTTVVFLENEGPAVTGLHAMAQDLNTIWVDWEAPSLLPQGYLIEWEMSSPSYNNSYKSWMIEPNGNITGILLKDNINPFQLYRITVAPLYPGIVGPPVNVYTFAGERAPPHAPALHLKHVGTTWAQLEWVPEAPRLGMIPLTHYTIFWADAGDHSFSVTLNISLHDFVLKHLEPASLYHVYLMATSRAGSTNSTGLTLRTLDPSDLNIFLGILCLVLLSTTCVVTWLCCKRRGKTSFWSDVPDPAHSSLSSWLPTIMTEETFQLPSFWDSSVPSITKITELEEDKKPTHWDSESSGNGSLPALVQAYVLQGDPREISNQSQPPSRTGDQVLYGQVLESPTSPGVMQYIRSDSTQPLLGGPTPSPKSYENIWFHSRPQETFVPQPPNQEDDCVFGPPFDFPLFQGLQVHGVEEQGGF
# B2: native murine G-CSF receptor on NFS-60 cells (receptor)
# chain: CGHIEISPPVVRLGDPVLASCTISPNCSKLDQQAKILWRLQDEPIQPGDRQHHLPDGTQESLITLPHLNYTQAFLFCLVPWEDSVQLLDQAELHAGYPPASPSNLSCLMHLTTNSLVCQWEPGPETHLPTSFILKSFRSRADCQYQGDTIPDCVAKKRQNNCSIPRKNLLLYQYMAIWVQAENMLGSSESPKLCLDPMDVVKLEPPMLQALDIGPDVVSHQPGCLWLSWKPWKPSEYMEQECELRYQPQLKGANWTLVFHLPSSKDQFELCGLHQAPVYTLQMRCIRSSLPGFWSPWSPGLQLRPTMKAPTIRLDTWCQKKQLDPGTVSVQLFWKPTPLQEDSGQIQGYLLSWNSPDHQGQDIHLCNTTQLSCIFLLPSEAQNVTLVAYNKAGTSSPTTVVFLENEGPAVTGLHAMAQDLNTIWVDWEAPSLLPQGYLIEWEMSSPSYNNSYKSWMIEPNGNITGILLKDNINPFQLYRITVAPLYPGIVGPPVNVYTFAGERAPPHAPALHLKHVGTTWAQLEWVPEAPRLGMIPLTHYTIFWADAGDHSFSVTLNISLHDFVLKHLEPASLYHVYLMATSRAGSTNSTGLTLRTLDPSDLNIFLGILCLVLLSTTCVVTWLCCKRRGKTSFWSDVPDPAHSSLSSWLPTIMTEETFQLPSFWDSSVPSITKITELEEDKKPTHWDSESSGNGSLPALVQAYVLQGDPREISNQSQPPSRTGDQVLYGQVLESPTSPGVMQYIRSDSTQPLLGGPTPSPKSYENIWFHSRPQETFVPQPPNQEDDCVFGPPFDFPLFQGLQVHGVEEQGGF
# B3: human G-CSF receptor, class 1 (plasmid pHQ3), expressed on COS cells (receptor)
# chain: EECGHISVSAPIVHLGDPITASCIIKQNCSHLDPEPQILWRLGAELQPGGRQQRLSDGTQESIITLPHLNHTQAFLSCCLNWGNSLQILDQVELRAGYPPAIPHNLSCLMNLTTSSLICQWEPGPETHLPTSFTLKSFKSRGNCQTQGDSILDCVPKDGQSHCCIPRKHLLLYQNMGIWVQAENALGTSMSPQLCLDPMDVVKLEPPMLRTMDPSPEAAPPQAGCLQLCWEPWQPGLHINQKCELRHKPQRGEASWALVGPLPLEALQYELCGLLPATAYTLQIRCIRWPLPGHWSDWSPSLELRTTERAPTVRLDTWWRQRQLDPRTVQLFWKPVPLEEDSGRIQGYVVSWRPSGQAGAILPLCNTTELSCTFHLPSEAQEVALVAYNSAGTSRPTPVVFSESRGPALTRLHAMARDPHSLWVGWEPPNPWPQGYVIEWGLGPPSASNSNKTWRMEQNGRATGFLLKENIRPFQLYEIIVTPLYQDTMGPSQHVYAYSQEMAPSHAPELHLKHIGKTWAQLEWVPEPPELGKSPLTHYTIFWTNAQNQSFSAILNASSRGFVLHGLEPASLYHIHLMAASQAGATNSTVLTLMTLTPEGSELHIILGLFGLLLLLTCLCGTAWLCCSPNRKNPLWPSVPDPAHSSLGSWVPTIMEEDAFQLPGLGTPPITKLTVLEEDEKKPVPWESHNSSETCGLPTLVQTYVLQGDPRAVSTQPQSQSGTSDQVLYGQLLGSPTSPGPGHYLRCDSTQPLLAGLTPSPKSYENLWFQASPLGTLVTPAPSQEDDCVFGPLLNFPLLQGIRVHGMEALGSF
# Key:
# [1] = biological target: mouse recombinant LIF (leukemia inhibitory factor) (mouse, UniProt P09056); test: competition for binding of 125I-mouse G-CSF to COS cells transfected with pJ17
# [2] = biological target: mouse recombinant GM-CSF (mouse, UniProt P01587); test: as above
# [3] = biological target: T1, human recombinant M-CSF; test: as above
# [4] = biological target: T2, rat prolactin; test: as above
# [5] = biological target: T3, mouse recombinant IL-6; test: as above
# [6] = biological target: mouse recombinant IL-3 (mouse, UniProt P01586); test: as above
# [7] = biological target: T4, mouse recombinant G-CSF (granulocyte colony-stimulating factor) (mouse, UniProt P09920, radioiodinated (125I, IODO-GEN method) where used as the labelled ligand; unlabelled where used as competitor); test: saturation binding of 125I-G-CSF to COS cells transfected with pJ17, Scatchard plot
# Method: The binding of ^125I-G-CSF to COS or NFS-60 cells was examined. COS cells grown on 15 cm plates were transfected with 20 µg of the pI62 or pJ17 plasmid. Cells were split into 6-well microtiter plates at 12 hr after the glycerol shock, and grown for 60 hr in DMEM containing 10% FCS. Cells were washed with binding medium, and incubated at 4° C. for 4 hr with ^125I-G-CSF (10 pM to 1.2 nM range). To determine the non-specific binding of ^125I-G-CSF to cells, a large excess of unlabeled G-CSF (800 nM) was incubated in the assay mixture, and the radioactivity bound to the cells was subtracted from the total binding to yield the specific binding.
# For binding of G-CSF to NFS-60 cells, 5.2 ×10^6 cells were incubated at 4° C. for 4 hr with various concentrations of ^125I-G-CSF in 0.3 ml of RPMI-1640 medium containing 10% FCS and 20 mM HEPES (pH 7.3). As mentioned above, 1 ×10^6 COS cells transfected with the plasmid pJ17 were incubated with various amounts of ^125I-G-CSF with or without an excess of unlabeled G-CSF. In the FIG. 3A, the specific binding (●) is shown as the difference between total (○) and non-specific binding (Δ). FIG. 3B is the scatchard plot of G-CSF binding data in COS cells, and FIG. 3C is the saturated binding of ^125I-G-CSF to NFS-60 cells, showing total (○), non-specific (Δ) and specific (●) binding to cells. […]
# [8] = biological target: T4, mouse recombinant G-CSF (granulocyte …); test: saturation binding of 125I-G-CSF to NFS-60 cells, Scatchard plot
# Method: For binding of G-CSF to NFS-60 cells, 5.2 ×10^6 cells were incubated at 4° C. for 4 hr with various concentrations of ^125I-G-CSF in 0.3 ml of RPMI-1640 medium containing 10% FCS and 20 mM HEPES (pH 7.3). As mentioned above, 1 ×10^6 COS cells transfected with the plasmid pJ17 were incubated with various amounts of ^125I-G-CSF with or without an excess of unlabeled G-CSF. In the FIG. 3A, the specific binding (●) is shown as the difference between total (○) and non-specific binding (Δ). FIG. 3B is the scatchard plot of G-CSF binding data in COS cells, and FIG. 3C is the saturated binding of ^125I-G-CSF to NFS-60 cells, showing total (○), non-specific (Δ) and specific (●) binding to cells. The specific binding is the difference between the total and non-specific binding. FIG. 3D is the scatchard plot of G-CSF binding data on NFS-60 cells. […] If the transfection efficiency of COS cells was assumed to be 10 to 20% (Sympayrac and Danna, Proc. Natl. Acad. Sci. USA, 78, 7575–7578 (1981)), the positively transfected COS cells probably expressed the recombinant G-CSF receptor at 1.5-3.0 ×10^5 molecules per cell.
# [9] = biological target: T4, mouse recombinant G-CSF (granulocyte …); test: saturation binding of murine 125I-G-CSF to COS cells transfected with pHQ3, Scatchard plot
binder,measurement,setting,value
B1,binding result,[1],no binding
same,binding result,[2],no binding
same,binding result,[3],no binding
same,binding result,[4],no binding
same,binding result,[5],no binding
same,binding result,[6],no binding
same,Kd,[7],0.29 nM
B2,Kd,[8],0.18 nM
B3,Kd,[9],0.55 nM
